Molecular target: SARS-CoV S-6P protein (SARS-CoV) (UniProt P59594)
Experiment: cryo-EM structure

“SARS-CoV S-6P protein (from UniProt P59594 14-1195) (domain or fragment)” gave a stoichiometry N of 3.
